Molecular target: peptide probe (designed thiol-sensitive probe mimicking the substrate of the main protease)
Assay: SPR

**Q.** How did the koff turn out when “main protease of SARS-Cov-2 (from UniProt P0DTD1) (enzyme)” was run?
**A.** 0.182 s⁻¹

**Q.** What about the kon of the same substance?
**A.** 1.03e+08 M⁻¹ s⁻¹

Reference: PMC8383480
